# Experimental data reported in patent US20040005648A1, “PYK2 related products and methods” (Sugen, Inc., priority 1994, published 2004).
# B1: NGF: growth factor stimulus of PC12 cells (protein, UniProt P25427 122-241, looked up)
# Beta-nerve growth factor: SSTHPVFHMGEFSVCDSVSVWVGDKTTATDIKGKEVTVLGEVNINNSVFKQYFFETKCRAPNPVESGCRGIDSKHWNSYCTTTHTFVKALTTDDKQAAWRFIRIDTACVCVLSRKAARRG
# modifications: Beta-nerve growth factor
# notes: growth factor stimulus of PC12 cells
# B2: EGF: growth factor stimulus (protein, UniProt P01133 23-1207, looked up)
# Pro-epidermal growth factor: PQHWSCPEGTLAGNGNSTCVGPAPFLIFSHGNSIFRIDTEGTNYEQLVVDAGVSVIMDFHYNEKRIYWVDLERQLLQRVFLNGSRQERVCNIEKNVSGMAINWINEEVIWSNQQEGIITVTDMKGNNSHILLSALKYPANVAVDPVERFIFWSSEVAGSLYRADLDGVGVKALLETSEKITAVSLDVLDKRLFWIQYNREGSNSLICSCDYDGGSVHISKHPTQHNLFAMSLFGDRIFYSTWKMKTIWIANKHTGKDMVRINLHSSFVPLGELKVVHPLAQPKAEDDTWEPEQKLCKLRKGNCSSTVCGQDLQSHLCMCAEGYALSRDRKYCEDVNECAFWNHGCTLGCKNTPGSYYCTCPVGFVLLPDGKRCHQLVSCPRNVSECSHDCVLTSEGPLCFCPEGSVLERDGKTCSGCSSPDNGGCSQLCVPLSPVSWECDCFPGYDLQLDEKSCAASGPQPFLLFANSQDIRHMHFDGTDYGTLLSQQMGMVYALDHDPVENKIYFAHTALKWIERANMDGSQRERLIEEGVDVPEGLAVDWIGRRFYWTDRGKSLIGRSDLNGKRSKIITKENISQPRGIAVHPMAKRLFWTDTGINPRIESSSLQGLGRLVIASSDLIWPSGITIDFLTDKLYWCDAKQSVIEMANLDGSKRRRLTQNDVGHPFAVAVFEDYVWFSDWAMPSVMRVNKRTGKDRVRLQGSMLKPSSLVVVHPLAKPGADPCLYQNGGCEHICKKRLGTAWCSCREGFMKASDGKTCLALDGHQLLAGGEVDLKNQVTPLDILSKTRVSEDNITESQHMLVAEIMVSDQDDCAPVGCSMYARCISEGEDATCQCLKGFAGDGKLCSDIDECEMGVPVCPPASSKCINTEGGYVCRCSEGYQGDGIHCLDIDECQLGEHSCGENASCTNTEGGYTCMCAGRLSEPGLICPDSTPPPHLREDDHHYSVRNSDSECPLSHDGYCLHDGVCMYIEALDKYACNCVVGYIGERCQYRDLKWWELRHAGHGQQQKVIVVAVCVVVLVMLLLLSLWGAHYYRTQKLLSKNPKNPYEESSRDVRSRRPADTEDGMSSCPQPWFVVIKEHQDLKNGGQPVAGEDGQAADGSMQPTSWRQEPQLCGMGTEQGCWIPVSSDKGSCPQVMERSFHMPSYGTQTLEGGVEKPHSLLSANPLWQQRALDPPHQMELTQ
# modifications: Pro-epidermal growth factor
# notes: growth factor stimulus
# What was measured:
# Shc = test: Tyrosine phosphorylation of Shc in stimulated PC12 cells (anti-Shc immunoprecipitation, anti-phosphotyrosine immunoblot); assay type: cell-based, rat
# Procedure: Tyrosine phosphorylation of Shc in response to bradykinin, carbachol, PMA and other stimuli was also measured. Quiescent PC12 cells were stimulated for 5 min at 37° C. with bradykinin (1AM), carbachol (1 mM), KC1 (75 mM), PMA (1.6pM), NGF (100 ng/ml), or left unstimulated (−). The cells were also stimulated with carbachol (1 mM) or potassium chloride (75 mM) in the presence of 3 mM EGTA. Stimulations with DMPP (100 μM) or muscarine (1 mM) were preformed under the same conditions. […] The Shc proteins were immunoprecipitated with anti-Shc antibodies, the immunoprecipitates were resolved by SDS-PAGE (8%1, transferred to nitrocellulose and immunoblotted with anti-phosphotyrosine antibodies.
# PYK-2 = test: Tyrosine phosphorylation of PYK-2 in NIH3T3 cell lines that overexpress PYK-2; assay type: cell-based, mouse; conditions: NIH3T3 cells overexpressing PYK-2 / PYK-2-HA; TPA 6 μM, 15 min at 37° C.
# Procedure: Stable cell lines of NIH3T3 that overexpress PYK2 were established by contransfection of PYK2 subcloned into pLSV together with pSV2neo utilizing lipofectamine reagent (GIBCO BRL). Following transfection the cells were grown in Dulbecco's modified Eagle's medium containing 10% fetal bovine serum and 1 mg/ml G418. Transient transfections into 293 cells were performed by using the calcium phosphate technique (*).
# The PYK-2 cDNA cloned in PLSV was cotransfected with pSV2neo into PC12 cells and NIH3T3 in order to establish stable cell lines. G418 resistant colonies were screened by immunoprecipitating and immunoblotting.
# NIH3T3 cell lines were established that overexpress the PYK-2 and the PYK-2-HA protein. […] The level of phosphorylation is not so high.
Molecule,duration of stimulation of Shc phosphorylation after addition (Shc),tyrosine phosphorylation of Shc in response to the agent (Shc),tyrosine phosphorylation of PYK-2 in response to the agent (PYK-2)
B1,five,induced persistent stimulation of Shc phosphorylation,
B2,,,undergoes tyrosine phosphorylation
